From the supplement of paper PMC10065799, “High-throughput profiling of sequence recognition by tyrosine kinases and SH2 domains using bacterial peptide display” (eLife, 2023)

What was measured:
AncSZ = experiment: phosphorylation enrichment, bacterial display (enrichment ratio); higher = better substrate or ligand; peptides without Tyr show the background
EPHB1 = EPHB1 (UniProt P54762); experiment: as above
EPHB2 = EPHB2 (UniProt P29323); experiment: as above
FGFR1 = FGFR1 (UniProt P11362); experiment: as above
FGFR1, sequence (P11362 whole entry, looked up): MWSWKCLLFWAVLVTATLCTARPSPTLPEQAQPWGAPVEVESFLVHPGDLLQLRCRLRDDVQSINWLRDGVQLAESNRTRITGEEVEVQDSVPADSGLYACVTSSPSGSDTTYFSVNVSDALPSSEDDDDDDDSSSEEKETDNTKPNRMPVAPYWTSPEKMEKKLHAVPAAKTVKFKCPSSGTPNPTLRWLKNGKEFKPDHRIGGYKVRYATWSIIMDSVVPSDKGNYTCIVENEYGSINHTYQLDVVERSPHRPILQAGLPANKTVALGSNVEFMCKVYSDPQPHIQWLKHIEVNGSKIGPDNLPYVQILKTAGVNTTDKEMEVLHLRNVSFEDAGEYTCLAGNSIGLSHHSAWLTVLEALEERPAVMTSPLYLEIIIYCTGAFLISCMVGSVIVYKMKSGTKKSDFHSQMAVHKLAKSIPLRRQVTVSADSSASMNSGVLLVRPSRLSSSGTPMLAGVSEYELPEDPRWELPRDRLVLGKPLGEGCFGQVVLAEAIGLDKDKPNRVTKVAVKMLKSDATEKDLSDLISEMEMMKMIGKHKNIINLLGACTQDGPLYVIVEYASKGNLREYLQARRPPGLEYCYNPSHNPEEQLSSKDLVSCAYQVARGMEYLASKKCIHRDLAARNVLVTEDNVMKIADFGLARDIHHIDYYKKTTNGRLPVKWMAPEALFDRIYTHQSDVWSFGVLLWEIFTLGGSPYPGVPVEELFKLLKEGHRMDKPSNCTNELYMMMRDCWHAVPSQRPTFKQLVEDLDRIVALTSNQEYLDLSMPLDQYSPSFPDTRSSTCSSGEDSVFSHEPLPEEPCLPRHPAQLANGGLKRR

FGFR3 = FGFR3 (UniProt P22607); experiment: as above
FGFR3, sequence (P22607 whole entry, looked up): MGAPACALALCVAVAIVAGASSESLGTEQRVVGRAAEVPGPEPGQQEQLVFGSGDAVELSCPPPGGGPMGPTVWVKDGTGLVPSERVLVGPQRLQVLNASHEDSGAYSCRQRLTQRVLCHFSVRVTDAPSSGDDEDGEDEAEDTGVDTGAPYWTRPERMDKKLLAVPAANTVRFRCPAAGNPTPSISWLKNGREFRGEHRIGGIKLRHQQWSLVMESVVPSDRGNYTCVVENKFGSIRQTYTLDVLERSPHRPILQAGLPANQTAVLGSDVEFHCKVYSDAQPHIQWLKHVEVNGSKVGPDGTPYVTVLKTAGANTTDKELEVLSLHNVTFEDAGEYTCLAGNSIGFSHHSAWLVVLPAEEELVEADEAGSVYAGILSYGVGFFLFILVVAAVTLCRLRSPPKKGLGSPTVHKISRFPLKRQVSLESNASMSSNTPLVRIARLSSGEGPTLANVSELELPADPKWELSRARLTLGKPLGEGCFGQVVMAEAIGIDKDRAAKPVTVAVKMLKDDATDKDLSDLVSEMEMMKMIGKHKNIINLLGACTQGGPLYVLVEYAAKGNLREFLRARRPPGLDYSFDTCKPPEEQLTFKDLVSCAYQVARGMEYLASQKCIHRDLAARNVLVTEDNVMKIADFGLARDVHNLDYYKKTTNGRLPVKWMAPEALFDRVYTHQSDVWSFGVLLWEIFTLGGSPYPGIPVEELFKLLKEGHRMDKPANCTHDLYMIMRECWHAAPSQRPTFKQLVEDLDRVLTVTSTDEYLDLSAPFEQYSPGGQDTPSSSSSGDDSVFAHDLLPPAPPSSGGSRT

Fer (mouse) = experiment: as above
Fes = Fes (UniProt P07332); experiment: as above
Fes, sequence (P07332 whole entry, looked up): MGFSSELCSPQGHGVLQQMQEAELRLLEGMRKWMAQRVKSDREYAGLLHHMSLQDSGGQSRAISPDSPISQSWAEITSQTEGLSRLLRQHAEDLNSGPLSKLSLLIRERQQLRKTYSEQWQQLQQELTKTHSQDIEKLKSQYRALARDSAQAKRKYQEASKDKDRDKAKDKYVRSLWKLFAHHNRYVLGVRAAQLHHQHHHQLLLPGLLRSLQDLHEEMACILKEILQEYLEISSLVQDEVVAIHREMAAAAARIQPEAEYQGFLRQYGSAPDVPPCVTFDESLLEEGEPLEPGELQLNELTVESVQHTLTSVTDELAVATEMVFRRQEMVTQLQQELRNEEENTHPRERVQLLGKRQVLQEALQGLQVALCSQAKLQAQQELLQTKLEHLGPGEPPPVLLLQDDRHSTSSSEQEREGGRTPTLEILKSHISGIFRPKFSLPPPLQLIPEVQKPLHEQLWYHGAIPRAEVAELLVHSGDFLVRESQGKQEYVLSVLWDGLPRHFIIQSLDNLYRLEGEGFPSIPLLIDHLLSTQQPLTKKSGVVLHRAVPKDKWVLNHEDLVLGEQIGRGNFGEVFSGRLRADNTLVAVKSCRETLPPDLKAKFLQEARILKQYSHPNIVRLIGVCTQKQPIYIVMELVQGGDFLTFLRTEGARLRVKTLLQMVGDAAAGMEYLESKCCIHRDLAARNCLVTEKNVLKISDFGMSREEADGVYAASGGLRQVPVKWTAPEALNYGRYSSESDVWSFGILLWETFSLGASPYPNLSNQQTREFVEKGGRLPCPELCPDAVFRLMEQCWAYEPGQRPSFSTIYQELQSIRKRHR

Fyn = Fyn (UniProt P06241); experiment: as above
Fyn, sequence (P06241 whole entry, looked up): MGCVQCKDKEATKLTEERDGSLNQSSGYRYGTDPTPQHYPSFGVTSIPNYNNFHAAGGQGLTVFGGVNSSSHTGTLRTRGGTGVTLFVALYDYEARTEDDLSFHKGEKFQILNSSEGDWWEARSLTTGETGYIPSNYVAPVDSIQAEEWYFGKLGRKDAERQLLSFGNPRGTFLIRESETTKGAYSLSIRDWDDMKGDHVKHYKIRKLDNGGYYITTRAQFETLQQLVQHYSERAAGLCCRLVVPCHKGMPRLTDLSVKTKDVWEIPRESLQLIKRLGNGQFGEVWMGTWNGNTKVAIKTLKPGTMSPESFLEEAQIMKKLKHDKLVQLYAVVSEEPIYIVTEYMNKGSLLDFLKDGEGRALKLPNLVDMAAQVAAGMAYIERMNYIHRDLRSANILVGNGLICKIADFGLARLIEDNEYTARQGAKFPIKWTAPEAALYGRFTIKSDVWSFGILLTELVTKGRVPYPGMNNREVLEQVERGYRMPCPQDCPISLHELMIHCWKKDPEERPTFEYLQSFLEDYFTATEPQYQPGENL

Hck = Hck (UniProt P08631); experiment: as above
Hck, sequence (P08631 whole entry, looked up): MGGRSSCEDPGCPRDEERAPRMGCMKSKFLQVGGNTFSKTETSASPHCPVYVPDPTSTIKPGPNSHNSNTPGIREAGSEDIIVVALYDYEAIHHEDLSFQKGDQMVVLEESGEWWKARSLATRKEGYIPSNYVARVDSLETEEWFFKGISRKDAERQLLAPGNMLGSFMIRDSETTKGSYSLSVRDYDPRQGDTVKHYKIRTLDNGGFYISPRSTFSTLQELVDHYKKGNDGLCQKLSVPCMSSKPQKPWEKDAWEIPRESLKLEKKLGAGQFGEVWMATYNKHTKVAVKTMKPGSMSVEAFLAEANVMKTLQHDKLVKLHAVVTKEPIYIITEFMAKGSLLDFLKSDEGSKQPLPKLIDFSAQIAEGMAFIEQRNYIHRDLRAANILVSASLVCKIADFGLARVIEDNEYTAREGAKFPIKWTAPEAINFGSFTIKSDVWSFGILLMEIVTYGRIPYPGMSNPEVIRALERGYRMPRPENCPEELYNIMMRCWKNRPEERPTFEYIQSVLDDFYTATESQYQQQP

Jak2 = Jak2 (UniProt O60674); experiment: as above
MERTK = MERTK (UniProt Q12866); experiment: as above
c-Abl (mouse) = experiment: as above
c-Src = experiment: as above
Grb2 SH2 = Grb2 SH2 (UniProt P62993); experiment: SH2 binding enrichment of the phosphorylated peptide, bacterial display (enrichment ratio); higher = better substrate or ligand; peptides without Tyr show the background
SHP2-C SH2 = experiment: as above
c-Src SH2 = experiment: as above
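Wherever SH2 binding enrichment of the phosphorylated peptide, bacterial display is given: peptide library displayed on the E. coli surface as eCPX fusions, selected cells deep-sequenced, score is each peptide's frequency after selection divided by its frequency in the input.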
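Wherever phosphorylation enrichment, bacterial display is given: 11-residue human phosphosite peptides and single-mutation variants displayed on the E. coli surface, counted by deep sequencing, each peptide's frequency after selection divided by its frequency in the unselected input library; frequency after pTyr selection over input frequency; kinase dosed for 20-30% of maximal phosphorylation in three min.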

EPHB2, sequence (P29323 whole entry, looked up): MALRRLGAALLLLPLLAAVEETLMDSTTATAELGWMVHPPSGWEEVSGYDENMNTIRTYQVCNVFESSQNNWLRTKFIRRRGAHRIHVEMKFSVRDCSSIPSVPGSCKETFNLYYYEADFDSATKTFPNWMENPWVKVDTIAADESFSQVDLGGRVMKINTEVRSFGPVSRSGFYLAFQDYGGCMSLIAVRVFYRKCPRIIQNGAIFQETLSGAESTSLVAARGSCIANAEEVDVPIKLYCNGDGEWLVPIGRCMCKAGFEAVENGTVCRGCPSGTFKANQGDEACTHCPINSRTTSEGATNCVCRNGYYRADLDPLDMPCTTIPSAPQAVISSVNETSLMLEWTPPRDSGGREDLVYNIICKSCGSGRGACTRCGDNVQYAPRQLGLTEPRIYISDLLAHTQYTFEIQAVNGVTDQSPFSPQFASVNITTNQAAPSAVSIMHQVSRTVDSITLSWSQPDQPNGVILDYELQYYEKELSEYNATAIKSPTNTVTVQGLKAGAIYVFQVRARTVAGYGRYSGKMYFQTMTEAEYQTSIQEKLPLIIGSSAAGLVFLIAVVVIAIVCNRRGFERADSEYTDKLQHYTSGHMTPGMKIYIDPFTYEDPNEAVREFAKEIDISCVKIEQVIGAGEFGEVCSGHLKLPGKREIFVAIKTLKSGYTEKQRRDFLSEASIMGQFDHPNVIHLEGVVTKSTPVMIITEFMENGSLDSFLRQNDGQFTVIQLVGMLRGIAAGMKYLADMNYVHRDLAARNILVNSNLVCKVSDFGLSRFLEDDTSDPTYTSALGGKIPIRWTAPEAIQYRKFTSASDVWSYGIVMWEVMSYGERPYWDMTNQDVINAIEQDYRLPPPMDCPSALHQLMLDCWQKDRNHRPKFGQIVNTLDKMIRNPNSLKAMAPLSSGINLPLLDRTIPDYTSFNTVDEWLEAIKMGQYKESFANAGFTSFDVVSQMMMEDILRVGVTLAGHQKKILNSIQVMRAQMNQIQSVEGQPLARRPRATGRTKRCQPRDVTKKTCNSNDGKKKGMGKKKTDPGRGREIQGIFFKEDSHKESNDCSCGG

Sequence | SH2 binding enrichment (Grb2 SH2) | SH2 binding enrichment (SHP2-C SH2) | SH2 binding enrichment (c-Src SH2) | phosphorylation enrichment (AncSZ) | phosphorylation enrichment (EPHB1) | phosphorylation enrichment (EPHB2) | phosphorylation enrichment (FGFR1) | phosphorylation enrichment (FGFR3) | phosphorylation enrichment (Fer (mouse)) | phosphorylation enrichment (Fes) | phosphorylation enrichment (Fyn) | phosphorylation enrichment (Hck) | phosphorylation enrichment (Jak2) | phosphorylation enrichment (MERTK) | phosphorylation enrichment (c-Abl (mouse)) | phosphorylation enrichment (c-Src)
EFENSCIFDIN [GAB1_Y83_Y83C] | 1.18 | 0.732 | 0.786 | 0.958 | 0.403 | 0.431 | 0.45 | 0.632 | 0.42 | 0.963 | 0.483 | 0.406 | 0.824 | 0.895 | 0.673 | 0.397
EFGRRYGFSCQ [CCDC93_Y209_R213C_YF] | 0.856 | 0.635 | 0.495 | 0.914 | 0.539 | 0.504 | 0.629 | 0.62 | 0.534 | 0.989 | 0.547 | 0.418 | 0.911 | 0.491 | 0.733 | 0.468
EFISEHCGEII [EZH2_Y641_Y641H] | 0.831 | 0.784 | 0.633 | 1.35 | 0.733 | 0.644 | 0.544 | 0.722 | 0.652 | 1.31 | 0.639 | 0.602 | 1.17 | 0.658 | 0.806 | 0.56
EGLKVYINGTL [ADGRD1_Y183_V184I] | 1.32 | 0.659 | 0.381 | 1.18 | 0.663 | 0.614 | 0.554 | 0.853 | 0.555 | 1.49 | 0.401 | 0.541 | 1.38 | 0.337 | 0.8 | 0.4
EILTQYEAMAS [GFAP_Y242_R239L] | 0.853 | 0.638 | 2.84 | 1.02 | 0.547 | 0.452 | 0.485 | 0.608 | 0.514 | 0.976 | 0.529 | 0.526 | 0.846 | 0.471 | 0.713 | 0.503
EIPTQYEAMAS [GFAP_Y242_R239P] | 0.674 | 0.629 | 2.5 | 0.982 | 0.853 | 0.577 | 0.536 | 0.694 | 0.662 | 1.04 | 0.487 | 0.596 | 0.802 | 0.445 | 0.615 | 0.405
EIRTQYEVMAS [GFAP_Y242_A244V] | 0.767 | 0.89 | 6.97 | 0.74 | 0.445 | 0.476 | 0.493 | 0.635 | 0.49 | 0.839 | 0.484 | 0.49 | 1.07 | 0.378 | 0.615 | 0.437
EKDSNYCLCRT [ASIC2_Y357] | 0.976 | 0.789 | 0.778 | 0.772 | 0.551 | 0.634 | 0.556 | 0.605 | 0.442 | 0.883 | 0.569 | 0.513 | 0.763 | 0.601 | 0.573 | 0.506
EKLIQYCQSKS [AKR1B1_Y199_G204S] | 0.964 | 0.755 | 0.609 | 0.679 | 0.584 | 0.588 | 0.459 | 0.642 | 0.476 | 0.807 | 0.475 | 0.46 | 0.562 | 0.395 | 0.638 | 0.448
ENEGTYVCIAT [ADAMTSL3_Y1365] | 0.74 | 0.6 | 0.395 | 1.46 | 1.73 | 1.16 | 1.29 | 1.45 | 1.3 | 1.38 | 1.44 | 1.08 | 1.1 | 0.662 | 0.852 | 1.62
EPDSLYGCGGG [ATM_Y2019] | 0.977 | 0.854 | 0.619 | 1.01 | 0.663 | 0.766 | 0.619 | 0.674 | 1.06 | 1.26 | 2.06 | 2.94 | 1.11 | 0.6 | 1.04 | 2.33
EPSVPYRGTVF [GLI3_Y104] | 0.803 | 0.711 | 0.491 | 0.566 | 0.447 | 0.567 | 0.447 | 0.478 | 0.424 | 0.698 | 0.545 | 0.441 | 0.783 | 0.487 | 0.534 | 0.46
EPYELYCEMGS [CBL_Y371_Q367P] | 1.11 | 0.564 | 0.695 | 3.71 | 5.73 | 6.42 | 3.54 | 3.14 | 3.52 | 1.74 | 4.13 | 4.22 | 1.61 | 3.54 | 2.36 | 4.82
ESLSSYRESAK [APOC2_Y47_W48R] | 0.858 | 0.795 | 0.556 | 0.63 | 0.252 | 0.317 | 0.382 | 0.456 | 0.314 | 0.529 | 0.342 | 0.305 | 0.487 | 0.391 | 0.495 | 0.303
ESLSSYWESAK [APOC2_Y47] | 0.889 | 0.753 | 0.713 | 0.84 | 0.527 | 0.576 | 0.63 | 0.692 | 0.354 | 1.01 | 0.414 | 0.464 | 0.888 | 0.381 | 0.584 | 0.392

The next lines start with results.

SH2 binding enrichment (Grb2 SH2) | SH2 binding enrichment (SHP2-C SH2) | SH2 binding enrichment (c-Src SH2) | Sequence | phosphorylation enrichment (AncSZ) | phosphorylation enrichment (EPHB1) | phosphorylation enrichment (EPHB2) | phosphorylation enrichment (FGFR1) | phosphorylation enrichment (FGFR3) | phosphorylation enrichment (Fer (mouse)) | phosphorylation enrichment (Fes) | phosphorylation enrichment (Fyn) | phosphorylation enrichment (Hck) | phosphorylation enrichment (Jak2) | phosphorylation enrichment (MERTK) | phosphorylation enrichment (c-Abl (mouse)) | phosphorylation enrichment (c-Src)
0.868 | 0.604 | 0.574 | EEQKKYFNAVK [SCN5A_Y1494_M1498V_YF] | 0.832 | 0.482 | 0.566 | 0.358 | 0.567 | 0.414 | 1.05 | 0.506 | 0.483 | 0.727 | 0.482 | 0.742 | 0.383
0.92 | 1.05 | 0.516 | EFDRLYEEFTR [PIK3R1_Y467_YF] | 1.59 | 3.46 | 2.77 | 0.65 | 0.807 | 6.18 | 1.15 | 7.47 | 6.11 | 1.01 | 3.04 | 0.841 | 5.36
0.872 | 0.445 | 0.532 | EGDGVYTLNDE [HP_Y125_N129D] | 1.18 | 0.643 | 0.727 | 0.453 | 0.838 | 0.555 | 1.23 | 4.51 | 1.81 | 1.21 | 0.482 | 0.8 | 3.79
0.881 | 0.693 | 2.3 | EGNERYEGYCV [GRIA3_Y451] | 0.982 | 0.542 | 0.562 | 0.575 | 0.742 | 0.579 | 1.14 | 0.544 | 0.574 | 0.944 | 0.418 | 0.761 | 0.579
0.708 | 0.525 | 0.362 | EIKLAYRRRPP [GRIN2B_Y1109_E1106K] | 0.735 | 0.568 | 0.617 | 0.537 | 0.584 | 0.98 | 0.532 | 0.526 | 0.789 | 0.861 | 0.652 | 0.756 | 0.885
0.74 | 0.629 | 0.447 | EILLSDLRTGY [TGM1_Y365_Y365D] | 0.673 | 0.367 | 0.455 | 0.511 | 0.616 | 0.362 | 0.845 | 0.416 | 0.553 | 0.744 | 0.422 | 0.421 | 0.401
0.879 | 0.844 | 0.464 | EKQVAYCPSGK [ROS1_Y2323] | 0.634 | 0.413 | 0.445 | 0.49 | 0.505 | 0.32 | 0.795 | 0.383 | 0.442 | 0.638 | 0.412 | 0.567 | 0.358
0.636 | 0.616 | 7.16 | ELSDGYWVVSN [TPP1_Y459_A454E] | 1.39 | 0.559 | 0.664 | 1.3 | 1.21 | 0.528 | 1.34 | 0.507 | 0.647 | 1.63 | 0.396 | 0.778 | 0.588
0.916 | 0.535 | 0.521 | EPFEVYRIVPE [IRF8_Y110_K108E_YF] | 1.05 | 0.662 | 0.72 | 1.25 | 1.03 | 0.411 | 1.03 | 3.41 | 2.37 | 0.882 | 0.62 | 0.798 | 3.68
0.818 | 0.669 | 0.476 | EPNSRYTFKLE [USH2A_Y3745_YF] | 0.808 | 0.479 | 0.448 | 0.379 | 0.596 | 0.397 | 0.963 | 0.408 | 0.393 | 0.76 | 0.373 | 0.658 | 0.365
0.804 | 0.567 | 0.414 | EPSVPYRGMVF [GLI3_Y104_T107M] | 0.704 | 0.43 | 0.56 | 0.422 | 0.508 | 0.38 | 0.816 | 0.413 | 0.376 | 0.639 | 0.432 | 0.471 | 0.462
0.868 | 0.627 | 0.646 | EQKKYSNAMKK [SCN5A_Y1495_Y1495S] | 0.498 | 0.326 | 0.333 | 0.304 | 0.459 | 0.247 | 0.53 | 0.322 | 0.467 | 0.437 | 0.29 | 0.469 | 0.262
0.869 | 0.785 | 0.732 | EQPNPYMVLDI [ROCK2_Y1197_S1194P] | 1.15 | 0.653 | 0.571 | 1.13 | 1.09 | 2.87 | 1.07 | 2.46 | 1.23 | 1.06 | 2.06 | 0.575 | 3.03
0.781 | 0.74 | 0.703 | EREYKYDAHNY [OAT_Y50_G51D] | 0.757 | 0.412 | 0.575 | 0.445 | 0.574 | 0.559 | 1 | 0.434 | 0.498 | 0.8 | 0.429 | 0.705 | 0.367
0.728 | 0.626 | 0.708 | ERIEFYELDKK [PMM2_Y145] | 1.05 | 0.652 | 0.554 | 0.395 | 0.76 | 0.742 | 1.09 | 0.484 | 0.588 | 0.892 | 0.393 | 0.771 | 0.49
0.822 | 0.492 | 0.467 | ERIEFYELNKK [PMM2_Y145_D148N] | 0.968 | 0.542 | 0.71 | 0.489 | 0.541 | 0.619 | 0.844 | 0.497 | 0.486 | 0.731 | 0.506 | 0.486 | 0.507
0.712 | 0.473 | 9.05 | ESLRSYDVMDV [KCNQ2_Y562_P561S] | 1.03 | 0.663 | 0.714 | 0.581 | 0.993 | 0.555 | 1.28 | 0.556 | 0.616 | 0.921 | 0.523 | 0.817 | 0.509
0.931 | 0.891 | 0.554 | ESTPLYPMLFG [SCLY_Y280_F276S] | 0.768 | 0.686 | 0.508 | 11.7 | 8.03 | 0.507 | 0.969 | 0.6 | 0.503 | 1.09 | 2.23 | 0.619 | 0.47
